Assay results published in US20250296984A1, “THERAPEUTIC AND DIAGNOSTIC AGENTS AND USES THEREOF” (priority 2022, published 2025).

Target: Peptide 3 ([…]) (Human cytomegalovirus, UniProt P69332)
Test: HuProt Human Proteome Microarray, control peptide
Assay type: binding, HCMV
Description: The HuProt™ Human Proteome Microarray provides the largest number of unique, full-length, individually purified human proteins on a single microscope slide. It provides >21,000 unique human proteins, isoform variants, and protein fragments—covering 16,794 unique genes. This includes 15,889 of the 19,613 canonical human proteins described in the Human Protein Atlas, with broad coverage across protein subclasses. This allows thousands of interactions to be profiled in a high-throughput manner. The full-length recombinant proteins are expressed in the yeast S. cerevisiae, purified, and printed on glass slides in duplicate along with a set of control proteins (GST, BSA, histones, IgG, etc.). The full list of the different proteins included in the HuProt™ Human Proteome Microarray as used in this Example is provided as “List B” in the Research Disclosures publication (ISSN 0374-4353, Questel Ireland Ltd) with database numbers 707018, 707019 and 707020, each entitled “Large scale protein arrange target protein identities” and each digitally published on 27 Jan. 2023, the contents of each of which are incorporated herein by reference in their entirety, fo the purposes of the disclosure of the proteins defined by “List B”. “List B” begins in Research Disclosures publication 707018, is continued in Research Disclosures publication 707019, and concludes Research Disclosures publications 707020, and so the three publications are to be read consecutively as a single disclosure of the “List B” proteins. The HuProt™ microarray is not restricted to a particular type of surface coating, although the default is glass coated with ultrathin nitrocellulose film for the non-covalent, yet irreversible, capture of active proteins to the surface.
Samples of humanised 7B1F3 and mouse 7B1F3 antibodies were analysed for binding specificities on HuProt™ human proteome arrays. A peptide with the sequence TDVLNQSKPVTL (“Peptide 3”) was added to the arrays at 0.1 mg/ml as a control.
After blocking, the arrays were probed with the antibody samples (0.1 μg/ml) at room temperature for 1 hour. Then the arrays were washed with TBST for 10 min×3 and probed with Alexa647-anti-human IgG Fc or Alexa647-anti-mouse IgG secondary antibodies under conditions optimized by CDI Labs for signal detection.
• Non-specific hits that directly bind to the secondary antibodies were eliminated from the analysis of the samples. • CDI software was used to quantify the specificity of each individual sample to specific proteins on the array based on Z Scores. • Z score is the average Z score of the duplicate spots of a given protein (each protein is printed in duplicate on a HuProt™ array). The Z score of each spot on a given array is calculated according to the algorithm below:
Z=[F635−F635(avg)]/F635(std) • F635(avg) and F635(std) are the average and standard deviation of the F635 values of all spots on the array, respectively. • S score is the difference of the Z Scores of a given protein and the one ranked next to it. If the S score of the top hit is >3, the antibody is considered to be highly specific for the top hit. • F635 is the average foreground signal intensity of 2 replicate spots of a given protein in the detection channel (635 nm). • B635 is the average background signal intensity of 2 replicate spots of a given protein in the detection channel (635 nm).

[1] = Table 9, top hit Peptide 3, antibody 0.1 μg/ml

B1: 7B1F3: mouse IgG1 kappa antibody against US28 ECD1 Peptide-N; VH SEQ ID NO: 211, VL SEQ ID NO: 213 (antibody, V domains shown)
VH: EVQLQQSGAELAKPGASVKMSCKASGYTFTNYWMHWVKQRPGQGLEWIGYVNPRTGYTEYNQKFKDKATLTADKSSRTAYMQLSSLTSEDSAVYSCARILNGTGFAYWGQGTLVTVSA
VL: DIVLTQSPSSLTVSVGEKFTMSCKSSQSLLYSSNQKNYLAWYQQKPGQSPKLLIYWASTRESGVPDRFTGSGSGTDFTLAISSVKPEDLAIYYCQQYYSFPLTFGAGTKLEIK
modifications: Mature form of VH sequence of 7B1F3, without the leader sequence; Mature form of VL sequence of 7B1F3, without the leader sequence
- S Score (Protein: Peptide 3): 116.095
- Z Score (Protein: Peptide 3): 145.092
- F635 (Protein: Peptide 3, antibody 0.1 μg/ml): 49972
- Peptide 3 Signal (Table 9, antibody 0.1 μg/ml): 49972
- Top Hit (Table 9, antibody 0.1 μg/ml): Peptide 3
- S Score [1]: 116.095
- Z Score [1]: 145.092
- Signal (Table 9, top hit, 65535 is the saturation signal intensity): 49972
